Results reported in US9791436B2, “Protease-based biosensor” (priority 2012, dated 2017).
Positions count from the first letter of the chain named.

B1: H6-143: thrombin-inducible autoinhibited TVMV biosensor, SEQ ID NO: 6 (protein)
chain: SSGSKALLKGVRDFNPISACVCLLENSSDGHSERLFGIGFGPYIIANQHLFRRNNGELTIKTMHGEFKVKNSTQLQMKPVEGRDIIVIKMAKDFPPFPQKLKFRQPTIKDRVCMVSTNFQQKSVSSLVSESSHIVHKEDTSFWQHWITTKDGQCGSPLVSIIDGNILGIHSLTHTTNGSNYFVEFPEKFVATYLDAADGWCKNWKFNADKISWGSFYLYEDAPEDFMSGLVPRGVGREYVRFAPGSTHHHHHH
modifications: protease construct
B2: H6-68: thrombin-inducible autoinhibited TVMV biosensor, SEQ ID NO: 7 (protein)
chain: B1 chain with Y217I, Y219W
modifications: protease construct
B3: H6-AP: thrombin-inducible autoinhibited TVMV biosensor, SEQ ID NO: 1 (protein)
chain: B1 chain with Y217T, Y219V, Y239T
modifications: protease construct
B4: 68-GP: thrombin-inducible autoinhibited TVMV biosensor, SEQ ID NO: 4 (protein)
chain: SSGSKALLKGVRDFNPISACVCLLENSSDGHSERLFGIGFGPYIIANQHLFRRNNGELTIKTMHGEFKVKNSTQLQMKPVEGRDIIVIKMAKDFPPFPQKLKFRQPTIKDRVCMVSTNFQQKSVSSLVSESSHIVHMRDTSFWQHWITTKDGQCGSPLVSIIDGNILGIHSLTHTTNGSNYFVEFPEKFVATYLDAADGWCKNWKFNADKISWGSFILWEDSGLVPRGVSGEGEYVRFGPGSTHHHHHH
modifications: protease construct
B5: 68-AP: thrombin-inducible autoinhibited TVMV biosensor, SEQ ID NO: 5 (protein)
chain: B4 chain with G239A
modifications: protease construct
B6: 2B4-AP: thrombin-inducible autoinhibited TVMV biosensor, SEQ ID NO: 3 (protein)
chain: SSGSKALLKGVRDFNPISACVCLLENSSDGHSERLFGIGFGPYIIANQHLFRRNNGELTIKTMHGEFKVKNSTQLQMKPVEGRDIIVIKMAKDFPPFPQKLKFRQPTIKDRVCMVSTNFQQKSVSSLVSESSHIVHMRDTSFWQHWITTKDGQCGSPLVSIIDGNILGIHSLTHTTNGSNYFVEFPEKFVATYLDAADGWCKNWKFNADKISWGSFTLVEDAPSGLVPRGVSGEGETVRFAPGSTHHHHHH
modifications: protease construct
B7: 2B4-GP: thrombin-inducible autoinhibited TVMV biosensor, SEQ ID NO: 2 (protein)
chain: B6 chain with A241G
modifications: protease construct
B8: SH3-TVMV-AC-AI-37-2: SH3-domain-tagged TVMV-based allosteric receptor, SEQ ID NO: 28 (protein)
chain: SGGSGAEYVRALFDFNGNDEEDLPFKKGDILRIRDKPEEQWWNAEDSEGKRGMIPVPYVEKYRPASASVSALIGGRGGSGGSGGSGGSGGSGGSSKALLKGVRDFNPISACVCLLENSSDGHSERLFGIGFGPYIIANQHLFRRNNGELTIKTMHGEFKVKNSTQLQMKPVEGRDIIVIKMAKDFPPFPQKLKFRQPTIKDRVCMVSTNFQQKSVSSLVSESSHIVHKEDTSFWQHWITTKDGQCGSPLVSIIDGNILGIHSLTHTTNGSNYFVEFPEKFVATYLDAADGWCKNWKFNADKISWGSFILWESGSPELGFSISGGVGGRGNPFRPDDDGIFVTRVQPEGPASKLLQPGDKIIQANGYSFINIEHGQAVSLLKTFQNTVELIIVREVGNGAKQEIRVRVEKDGGSGGGGVSSVPTNLEVVAATPTSLLISWDAYRELPVSYYRITYGETGGNSPVQEFTVPGSKSTATISGLKPGVDYTITVYAHYNYHYYSSPISINYRGPGREYVRFAPGSTHHHHHH
modifications: protease construct

These molecules were tested against T1, bovine thrombin (Bos taurus, UniProt P00735) (assay: Thrombin induction of autoinhibited TVMV-based biosensor protease activity (quenched fluorescent TVMV substrate)). Conditions: biosensor 1 μM, 10 μM protease substrate, presence vs absence of bovine thrombin (1 U per 200 μL).
T1 construct: addition of bovine thrombin (1 U per 200 μL)
Format: biochemical
Description: Libraries of autoinhibited TVMV mutants were transformed into chemically competent BL21(DE3)-RIL cells hosting the autolysis plasmid 05665 (FIG. 2A) and plated onto LB agar plates supplemented with 100 μg/mL carbenicillin, 50 μg/mL kanamycin and 34 μg/mL chloramphenicol. Following overnight incubation at 37° C., single colonies were inoculated into 96 deep-well plates filled with minimal auto-induction medium (1 mL) which was supplemented with 100 μg/mL carbenicillin, 50 μg/mL kanamycin and 34 μg/mL chloramphenicol. Cells were left to grow for 72 h at 30° C. at 320 rpm and typically reached OD values of approximately 10. To lyse cells, aliquots of cell cultures (100 μL) from half a 96-well-plate (48 samples) were diluted two-fold into autolysis medium (100 μL) and left to incubate for 90 min at 30° C. at 200 rpm. Aliquots of cell lysates (10 μL) were duplicated after transferring them into separate halves of a black 96-well-plate filled with protease assay buffer (140 μL). One of the halves additionally contained 1 U thrombin in order to cleave the linker connecting TVMV to its autoinhibition domain and relieve autoinhibtion. The reaction was initiated following the addition of substrate solution (50 μL) which gave rise to 10 μM TVMV substrate peptide in the final reaction. The reaction was monitored using a fluorometer (Biotek Synergy 4) by measuring the release of a quenched fluorophore (7-Methoxycoumarinyl-4-acetyl) at 405 nm following excitation at 330 nm. The induction of TVMV-based protease activities was evaluated by comparing the time course of the reactions in the presence and absence of thrombin. The plasmids encoding for desirable mutants were subsequently isolated from single colonies and their identity confirmed by Sanger sequencing.
To measure induction ratios under saturating reaction conditions, TVMV- and HCV-based signal transducers (5 μg) were pre-incubated for 10 min in 150 μL protease assay buffer (50 mM Tris-HCl, 1 mM DTT and 0.5 mM EDTA, pH 8.0 for TVMV, and 50 mM Tris-HCl, 50 mM NaCl and 1 mM DTT, pH 8.0 for HCV) in the presence and absence of the inducing protease: i.e. 1 U thrombin, 1 U Factor Xa, 5 μg PSA, 1 μg MMP-7 and 1 μg for MMP-9 for TVMV-based signal transducers as indicated, and 5 μg TVMV for HCV-based signal transducers. The reaction was initiated following the addition of 50 μL substrate solution that contained 40 μM peptide substrate and gave rise to 10 μM peptide substrate in a final reaction volume of 200 μL. The reaction was monitored using a fluorometer (Biotek Synergy 4) by measuring the release of 7-Methoxycoumarinyl-4-acetyl from the quenched substrate peptide at 405 nm following excitation at 330 nm. The induction ratio of TVMV-based protease activities in the inhibited and uninhibited state was evaluated by comparing the reaction in the presence and absence of the activating protease. Activity traces labelled as ‘Background’ generally denote control samples that contain peptide substrate, but no enzyme.
The biosensor (1 μM) was incubated together with 10 μM protease substrate in 50 mM Tris-HCl, 1 mM DTT and 0.5 mM EDTA. Relief of autoinhibition was achieved upon addition of bovine thrombin (1 U per 200 μL).

Molecule | Fold Induction
B1 | ~60 fold
B2 | ~150-200 fold
B3 | ~50 fold
B4 | ~60 fold
B5 | ~100 fold
B6 | ~25 fold
B7 | ~17 fold

What follows are molecules tested against T2, PDZ ligand peptide-1 (RGSIDTWV) (Homo sapiens, UniProt Q96RT1) (assay: Protease signalling cascade: SH3-tagged TVMV-based allosteric receptor coupled to HCV-based signal amplifier, ligand titration). Conditions: not given.
T2 construct: made in house; host or cells: E. coli BL21(DE3)-RIL
Format: biochemical
Description: Signalling cascades consisting of SH3-domain-tagged TVMV-based allosteric receptors (10 nM) and SH3-peptide-tagged TVMV-inducible HCV-based signal transducers (200 nM) were measured in protease assay buffer consisting of 50 mM Tris-HCl, 200 mM NaCl and 1 mM DTT, pH 8.0. The reaction was strictly initiated by simultaneously adding the TVMV-based allosteric receptor and HCV substrate peptide to a final concentration of 10 μM along with the PDZ ligand peptide-1 ([…]) at a final concentration of 10 μM. To determine the KD of TVMV-based allosteric receptors, the PDZ ligand peptide-1 ([…]) was suitably diluted over a concentration range from 2 nM to 400 nM as indicated in FIG. 13B. To determine the KD, initial rates were plotted against ligand concentrations and the fitted values analysed by non-linear regression assuming a one-site specific binding model (GraphPad Prism 5).

Molecule | improvement of the sensitivity of the assay
B8 | 20 fold

Same assay, conditions: FIG. 13B

Molecule | concentration of receptor faithfully detected
B8 | 5 nM
